Results from article PMC6366860.

Assays:
[1] = target: murine α-cardiac myosin (filaments) (mouse) (UniProt Q02566); test: co-sedimentation
[2] = target: F-actin from rabbit skeletal muscle (rabbit) (UniProt P68135); test: co-sedimentation

Substance: mouse short form C0-C2, N-terminal tagged (mSF2), lacking the 8 amino acid NTE (domain or fragment)
- cosedimentation relative to human C0-C2 [1]: 162%

Substance: wild-type mouse cMyBP-C C0-C2 (with the N-terminal extension, NTE) (domain or fragment)
- Kd [2]: 7.9 µM
- stoichiometry N (mol C0-C2/mol actin) [2]: 1
- cosedimentation relative to human C0-C2 [1]: 60%
